Experimental data published in patent US20220089698A1 (published 2022).

Assays:
Cyno FcγRIIB = target: T1, Cyno FcγRIIB (cynomolgus macaque, UniProt A0A140HDN4 43-217); test: SPR (Biacore 4000), antibody amine coupled to CM4 chip, receptor as analyte, steady-state fit
T1 construct: also called cynomolgus macaque FcγRIIB
T1 sequence: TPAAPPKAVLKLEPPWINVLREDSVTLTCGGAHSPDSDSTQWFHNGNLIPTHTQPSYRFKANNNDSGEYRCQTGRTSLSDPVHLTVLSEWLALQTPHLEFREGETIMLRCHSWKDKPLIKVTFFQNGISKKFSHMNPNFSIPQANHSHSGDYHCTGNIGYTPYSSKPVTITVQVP

Cyno FcγRIIA = target: T2, Cyno FcγRIIA (cynomolgus macaque, UniProt A0A140HDM9 28-216); test: as above
T2 construct: also called cynomolgus macaque FcγRIIA
T2 sequence: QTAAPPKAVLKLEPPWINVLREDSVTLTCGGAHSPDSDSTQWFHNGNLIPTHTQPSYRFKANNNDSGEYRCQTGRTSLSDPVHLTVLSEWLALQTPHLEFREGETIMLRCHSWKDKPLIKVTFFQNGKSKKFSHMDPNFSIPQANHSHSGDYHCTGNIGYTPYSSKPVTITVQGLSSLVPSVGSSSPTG

HIV gp120 Bal [1] = target: HIV gp120 Bal (HIV-1)
HIV gp120 REJO = HIV gp120 REJO (HIV-1)
HIV gp120 CAAN [2] = target: HIV gp120 CAAN (HIV-1)
HIV gp120 CAAN [3] = target: HIV gp120 CAAN (HIV); test: single-point ELISA; further: test concentration or dose not given here
HIV gp120 Bal [4] = target: HIV gp120 Bal (HIV); test: single-point ELISA; further: test concentration or dose not given here

Row | Binder | Kd (Cyno FcγRIIB) [nM] | Kd (Cyno FcγRIIA) [nM] | EC50 (HIV gp120 Bal [1]) [nM] | EC50 (HIV gp120 REJO) [nM] | EC50 (HIV gp120 CAAN [2]) [nM] | ELISA (A450) (HIV gp120 CAAN [3]) | ELISA (A450) (HIV gp120 Bal [4])
1 | Antibody A-1 (antibody, human IgG1, kappa) heavy: QVQLLQSGAAVTKPGASVRVSCEASGYNIRDYFIHWWRQAPGQGLQWVGWINPKTGQPNNPRQFQGRVSLTRHASWDFDTFSFYMDLKALRSDDTAVYFCARQRSDYWDFDVWGSGTQVTVSSASTKGPSVFPLAPSSKSTSGGTAALGCLVKDYFPEPVTVSWNSGALTSGVHTFPAVLQSSGLYSLSSVVTVPSSSLGTQTYICNVNHKPSNTKVDKKVEPKSCDKTHTCPPCPAPELLAGPDVFLFPPKPKDTLMISRTPEVTCVVVDVSHEDPEVKFNWYVDGVEVHNAKTKPREEQYNSTYRVVSVLTVLHQDWLNGKEYKCKVSNKALPLPEEKTISKAKGQPREPQVYTLPPSREEMTKNQVSLTCLVKGFYPSDIAVEWESNGQPENNYKTTPPVLDSDGSFFLYSKLTVDKSRWQQGNVFSCSVLHEALHSHYTQKSLSLSPGK light: DIQMTQSPSSLSASVGDTVTITCQANGYLNWYQQRRGKAPKLLIYDGSKLERGVPSRFSGRRWGQEYNLTINNLQPEDIATYFCQVYEFVVPGTRLDLKRTVAAPSVFIFPPSDEQLKSGTASVVCLLNNFYPREAKVQWKVDNALQSGNSQESVTEQDSKDSTYSLSSTLTLSKADYEKHKVYACEVTHQGLSSPVTKSFNRGEC | 240 | 1100 | 0.06 | 2.37 | 2.17 | – | –
2 | 1.10.1-1 (antibody, human IgG1, kappa) heavy: QVQLLQSGAAVTKPGASVRVSCEASGYNIRDYFMHWWRQAPGQGLQWVGWINPKTGQPNNPRQFQGRVSLTRHASWDFDTFSFYMDLKALRSDDTAVYFCARQRSDYWDFDVWGSGTQVTVSSASTKGPSVFPLAPSSKSTSGGTAALGCLVKDYFPEPVTVSWNSGALTSGVHTFPAVLQSSGLYSLSSVVTVPSSSLGTQTYICNVNHKPSNTKVDKKVEPKSCDKTHTCPPCPAPELLAGPDVFLFPPKPKDTLMISRTPEVTCVVVDVSHEDPEVKFNWYVDGVEVHNAKTKPREEQYNSTYRVVSVLTVLHQDWLNGKEYKCKVSNKALPLPEEKTISKAKGQPREPQVYTLPPSREEMTKNQVSLTCLVKGFYPSDIAVEWESNGQPENNYKTTPPVLDSDGSFFLYSKLTVDKSRWQQGNVFSCSVLHEALHSHYTQKSLSLSPGK light: DIQMTQSPSSLSASVGDTVTITCQANGYLNWYQQRRGKAPKLLIYDGSKLERGVPSRFSGRRWGQEYNLTINNLQPEDIATYFCQVYEFVVPGTRLDLKRTVAAPSVFIFPPSDEQLKSGTASVVCLLNNFYPREAKVQWKVDNALQSGNSQESVTEQDSKDSTYSLSSTLTLSKADYEKHKVYACEVTHQGLSSPVTKSFNRGEC | – | – | – | – | – | 0.94 | 0.95
3 | 1.8.1-1 (antibody, human IgG1, kappa) heavy: QVQLVQSGAEVTKPGASVRVSCEASGYNIRDYFIHWWRQAPGQGLQWVGWINPKTGQPNNPRQFQGRVSLTRHASWDFDTFSFYMDLKALRSDDTAVYFCARQRSDYWDFDVWGSGTQVTVSSASTKGPSVFPLAPSSKSTSGGTAALGCLVKDYFPEPVTVSWNSGALTSGVHTFPAVLQSSGLYSLSSVVTVPSSSLGTQTYICNVNHKPSNTKVDKKVEPKSCDKTHTCPPCPAPELLAGPDVFLFPPKPKDTLMISRTPEVTCVVVDVSHEDPEVKFNWYVDGVEVHNAKTKPREEQYNSTYRVVSVLTVLHQDWLNGKEYKCKVSNKALPLPEEKTISKAKGQPREPQVYTLPPSREEMTKNQVSLTCLVKGFYPSDIAVEWESNGQPENNYKTTPPVLDSDGSFFLYSKLTVDKSRWQQGNVFSCSVLHEALHSHYTQKSLSLSPGK light: DIQMTQSPSSLSASVGDTVTITCQANGYLNWYQQRRGKAPKLLIYDGSKLERGVPSRFSGRRWGQEYNLTINNLQPEDIATYFCQVYEFVVPGTRLDLKRTVAAPSVFIFPPSDEQLKSGTASVVCLLNNFYPREAKVQWKVDNALQSGNSQESVTEQDSKDSTYSLSSTLTLSKADYEKHKVYACEVTHQGLSSPVTKSFNRGEC | – | – | – | – | – | 0.9 | 0.86
4 | 1.11.1-1 (antibody, human IgG1, kappa) heavy: QVQLLQSGAAVTKPGASVRVSCEASGYNIRDYFMHWWRQAPGQGLQWVGWINPKTGQPNNPRQFQGRVSLTRHASWDFDTFSAYMDLKALRSDDTAVYFCARQRSDYWDFDVWGSGTQVTVSSASTKGPSVFPLAPSSKSTSGGTAALGCLVKDYFPEPVTVSWNSGALTSGVHTFPAVLQSSGLYSLSSVVTVPSSSLGTQTYICNVNHKPSNTKVDKKVEPKSCDKTHTCPPCPAPELLAGPDVFLFPPKPKDTLMISRTPEVTCVVVDVSHEDPEVKFNWYVDGVEVHNAKTKPREEQYNSTYRVVSVLTVLHQDWLNGKEYKCKVSNKALPLPEEKTISKAKGQPREPQVYTLPPSREEMTKNQVSLTCLVKGFYPSDIAVEWESNGQPENNYKTTPPVLDSDGSFFLYSKLTVDKSRWQQGNVFSCSVLHEALHSHYTQKSLSLSPGK light: DIQMTQSPSSLSASVGDTVTITCQANGYLNWYQQRRGKAPKLLIYDGSKLERGVPSRFSGRRWGQEYNLTINNLQPEDIATYFCQVYEFVVPGTRLDLKRTVAAPSVFIFPPSDEQLKSGTASVVCLLNNFYPREAKVQWKVDNALQSGNSQESVTEQDSKDSTYSLSSTLTLSKADYEKHKVYACEVTHQGLSSPVTKSFNRGEC | – | – | – | – | – | 0.75 | 0.93
5 | 1.9.1-1 (antibody, human IgG1, kappa) heavy: QVQLVQSGAEVKKPGASVRVSCKASGYNIRDYFIHWWRQAPGQGLQWVGWINPKTGQPNNPRQFQGRVSLTRHASWDFDTFSFYMDLKALRSDDTAVYFCARQRSDYWDFDVWGSGTQVTVSSASTKGPSVFPLAPSSKSTSGGTAALGCLVKDYFPEPVTVSWNSGALTSGVHTFPAVLQSSGLYSLSSVVTVPSSSLGTQTYICNVNHKPSNTKVDKKVEPKSCDKTHTCPPCPAPELLAGPDVFLFPPKPKDTLMISRTPEVTCVVVDVSHEDPEVKFNWYVDGVEVHNAKTKPREEQYNSTYRVVSVLTVLHQDWLNGKEYKCKVSNKALPLPEEKTISKAKGQPREPQVYTLPPSREEMTKNQVSLTCLVKGFYPSDIAVEWESNGQPENNYKTTPPVLDSDGSFFLYSKLTVDKSRWQQGNVFSCSVLHEALHSHYTQKSLSLSPGK light: DIQMTQSPSSLSASVGDTVTITCQANGYLNWYQQRRGKAPKLLIYDGSKLERGVPSRFSGRRWGQEYNLTINNLQPEDIATYFCQVYEFVVPGTRLDLKRTVAAPSVFIFPPSDEQLKSGTASVVCLLNNFYPREAKVQWKVDNALQSGNSQESVTEQDSKDSTYSLSSTLTLSKADYEKHKVYACEVTHQGLSSPVTKSFNRGEC | – | – | – | – | – | 0.98 | 1.08
6 | Antibody 1.52.64-1 (antibody, human IgG1, kappa) heavy: QVQLLQSGAAVTKPGASVRVSCEASGYNIRDYFIHWWRQAPGQGLQWVGWINPKTGQPNNPRQFQGRVSLTRHASFDFDTFSFYMDLKALRSDDTAVYFCARQRSDYWDFDVWGSGTQVTVSSASTKGPSVFPLAPSSKSTSGGTAALGCLVKDYFPEPVTVSWNSGALTSGVHTFPAVLQSSGLYSLSSVVTVPSSSLGTQTYICNVNHKPSNTKVDKKVEPKSCDKTHTCPPCPAPELLAGPDVFLFPPKPKDTLMISRTPEVTCVVVDVSHEDPEVKFNWYVDGVEVHNAKTKPREEQYNSTYRVVSVLTVLHQDWLNGKEYKCKVSNKALPLPEEKTISKAKGQPREPQVYTLPPSREEMTKNQVSLTCLVKGFYPSDIAVEWESNGQPENNYKTTPPVLDSDGSFFLYSKLTVDKSRWQQGNVFSCSVLHEALHSHYTQKSLSLSPGK light: DIQMTQSPSSLSASVGDTATITCQANGYLNWYQQRRGKAPKLLIYDGSKLERGVPSRFSGRRWGQEYNLTINNLQPEDIATYFCQVYEFVVPGTRLDLKRTVAAPSVFIFPPSDEQLKSGTASVVCLLNNFYPREAKVQWKVDNALQSGNSQESVTEQDSKDSTYSLSSTLTLSKADYEKHKVYACEVTHQGLSSPVTKSFNRGEC | 280 | 1180 | 0.07 | 4.02 | 3.79 | – | –
7 | Antibody A (antibody, human IgG1, kappa) heavy: not shown light: DIQMTQSPSSLSASVGDTVTITCQANGYLNWYQQRRGKAPKLLIYDGSKLERGVPSRFSGRRWGQEYNLTINNLQPEDIATYFCQVYEFVVPGTRLDLKRTVAAPSVFIFPPSDEQLKSGTASVVCLLNNFYPREAKVQWKVDNALQSGNSQESVTEQDSKDSTYSLSSTLTLSKADYEKHKVYACEVTHQGLSSPVTKSFNRGEC | 895 | 2000 | 0.05 | 2.21 | 1.84 | – | –
